The values that follow come from patent publication US20210261648A1 (published 2021).

Where a chain is given by its changes, count along the chain named. In names and notes the source's numbering stands.

The chains are these.
B1: IL6R-BP473/IL6R-L (antibody, human IgG1, kappa)
heavy: QVQLQESGPGLVKPSETLSLTCAVSGHSISHDHAWSWVRQPPGEGLEWIGFISYSGITNYNPSLQGRVTISRDNSKNTLYLQMNSLRAEDTAVYYCARSLARTTAMDYWGEGTLVTVSSASTKGPSVFPLAPSSKSTSGGTAALGCLVKDYFPEPVTVSWNSGALTSGVHTFPAVLQSSGLYSLSSVVTVPSSSLGTQTYICNVNHKPSNTKVDKKVEPKSCDKTHTCPPCPAPDLLGDDSVFLFPPKPKDTLMISRTPEVTCVVVDVSDEDGEVKFNWYVDGVEVHNAKTKPREEQDNSTYRVVSVLTVLHQDWLNGKEYKCKVSNKGLPRPIEKTISKAKGQPREPQVYTLPPSRDELTKNQVSLTCLVKGFYPSDIAVEWESNGQPENNYKTTPPVLDSDGSFFLYSKLTVDKSRWQQGNVFSCSVMHEALHNHYTQESLSLSP
light: not shown
B2: IL6R-BP477/IL6R-L (antibody, human IgG1, kappa)
heavy: B1 heavy with P333S
light: not shown
B3: IL6R-BP471/IL6R-L (antibody, human IgG1, kappa)
heavy: B1 heavy with G329A, P333S
light: not shown
B4: IL6R-BP478/IL6R-L (antibody, human IgG4 S228P, kappa)
heavy: QVQLQESGPGLVKPSETLSLTCAVSGHSISHDHAWSWVRQPPGEGLEWIGFISYSGITNYNPSLQGRVTISRDNSKNTLYLQMNSLRAEDTAVYYCARSLARTTAMDYWGEGTLVTVSSASTKGPSVFPLAPCSRSTSESTAALGCLVKDYFPEPVTVSWNSGALTSGVHTFPAVLQSSGLYSLSSVVTVPSSSLGTKTYTCNVDHKPSNTKVDKRVESKYGPPCPPCPAPDLLGDDSVFLFPPKPKDTLMISRTPEVTCVVVDVSDEDGEVKFNWYVDGVEVHNAKTKPREEQDNSTYRVVSVLTVLHQDWLNGKEYKCKVSNKALPRPIEKTISKAKGQPREPQVYTLPPSRDELTKNQVSLTCLVKGFYPSDIAVEWESNGQPENNYKTTPPVLDSDGSFFLYSKLTVDKSRWQQGNVFSCSVMHEALHNHYTQESLSLSP
light: not shown
B5: IL6R-BP213/IL6R-L (antibody, human IgG1, kappa)
heavy: B1 heavy with D239G, D298Y, G329A
light: not shown
B6: B3 variant of GpH7-B3/GpL16-k0 with Pro at position 238 (EU numbering) substituted with Asp (antibody, human IgG1, kappa)
heavy: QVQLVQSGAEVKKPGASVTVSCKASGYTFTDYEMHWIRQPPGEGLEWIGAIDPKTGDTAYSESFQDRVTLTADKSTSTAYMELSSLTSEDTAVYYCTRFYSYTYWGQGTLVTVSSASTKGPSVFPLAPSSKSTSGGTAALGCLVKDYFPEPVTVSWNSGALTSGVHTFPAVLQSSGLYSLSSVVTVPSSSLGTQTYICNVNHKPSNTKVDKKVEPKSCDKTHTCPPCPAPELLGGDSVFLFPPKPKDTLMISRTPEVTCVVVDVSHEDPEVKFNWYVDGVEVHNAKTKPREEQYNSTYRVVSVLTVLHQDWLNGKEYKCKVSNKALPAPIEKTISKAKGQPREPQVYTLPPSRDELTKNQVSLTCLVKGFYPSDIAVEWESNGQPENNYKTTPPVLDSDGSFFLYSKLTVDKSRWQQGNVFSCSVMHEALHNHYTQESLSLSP
light: DIVMTQSPLSLPVTPGEPASISCQASESLVHSNRNTYLHWYLQKPGQSPQLLIYKVSNRFSGVPDRFSGSGSGTDFTLKISRVEAEDVGVYYCSQNTHVPPTFGQGTKVEIERTVAAPSVFIFPPSDEQLKSGTASVVCLLNNFYPREAKVQWKVDNALQSGNSQESVTEQDSKDSTYSLSSTLTLSKADYEKHKVYACEVTHQGLSSPVTKSFNRGEC
notes: also called mutation A
B7: IL6R-BP567/IL6R-L (antibody, human IgG1, kappa)
heavy: B1 heavy with D239G, V266I, S269A, D270E, G329A, R332A
light: not shown
notes: Anti-human IL-6R IgG1; alterations introduced into IL6R-B3 (G1d with K439E)
B8: IL6R-BP560/IL6R-L (antibody, human IgG1, kappa)
heavy: B1 heavy with D235E, D239G, S269G, D270E, G329A
light: not shown
notes: as for B7
B9: IL6R-BP564/IL6R-L (antibody, human IgG1, kappa)
heavy: B1 heavy with D235E, D270E, E274D, G329A
light: not shown
notes: as for B7
B10: IL6R-BP562/IL6R-L (antibody, human IgG1, kappa)
heavy: B1 heavy with D235E, E274D, G329A
light: not shown
notes: as for B7
B11: IL6R-BP568/IL6R-L (antibody, human IgG1, kappa)
heavy: B1 heavy with D239G, V266I, S269A, D270E, D298Y, G329A, R332A
light: not shown
notes: as for B7
B12: IL6R-BP561/IL6R-L (antibody, human IgG1, kappa)
heavy: B1 heavy with E274D, G329A
light: not shown
notes: as for B7

The target of one test is T1, FcγRIa extracellular domain with C-terminal His tag (human, UniProt P12314 16-292).
T1 construct: Whole entry named; also called FcgRIa; CD64A
Nature of the test: SPR (Biacore). For orientation: In SPR one partner is held on a chip, and binding of the other changes the refractive index at the surface.
T1 sequence (P12314 16-292): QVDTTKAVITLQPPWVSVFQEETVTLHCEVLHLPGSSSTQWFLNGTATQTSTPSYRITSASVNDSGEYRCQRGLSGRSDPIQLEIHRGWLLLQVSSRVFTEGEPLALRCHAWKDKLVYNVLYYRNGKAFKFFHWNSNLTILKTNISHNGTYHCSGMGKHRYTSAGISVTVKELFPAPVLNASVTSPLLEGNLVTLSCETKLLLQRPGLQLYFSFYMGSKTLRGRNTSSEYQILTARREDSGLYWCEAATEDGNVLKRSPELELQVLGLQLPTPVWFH
Regarding B1, the binding result is recorded as “binds”.

Regarding B2, the binding result is “binds”.

For the molecule B3, the binding result was “binds”.

Consider B4, for which the binding result is reported as “binds”.

The next test deals with T2, FcγRIIa type H extracellular domain with C-terminal His tag (human, UniProt P12318 34-217).
T2 construct: extracellular domain; also called FcgRIIaH; FcγRIIa H
T2 sequence (looked up): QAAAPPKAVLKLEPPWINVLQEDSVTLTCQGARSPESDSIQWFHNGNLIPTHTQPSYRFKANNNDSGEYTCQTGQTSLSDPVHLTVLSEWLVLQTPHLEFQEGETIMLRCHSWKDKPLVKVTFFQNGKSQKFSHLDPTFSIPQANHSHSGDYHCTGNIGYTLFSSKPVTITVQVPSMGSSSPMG
Kind of test: SPR (Biacore).
As for B1, the binding result is “binds”.

B2: the binding result is recorded as “binds”.

With B3, the binding result is recorded as “binds”.

For B4, the binding result was “binds”.

The target of another test is T3, FcγRIIb extracellular domain with C-terminal His tag (human, UniProt P31994 43-217).
T3 construct: extracellular domain; For crystals it was expressed with kifunensine and trimmed with Endo F1; also called FcgRIIb; FcγRIIb extracellular region
T3 sequence (looked up): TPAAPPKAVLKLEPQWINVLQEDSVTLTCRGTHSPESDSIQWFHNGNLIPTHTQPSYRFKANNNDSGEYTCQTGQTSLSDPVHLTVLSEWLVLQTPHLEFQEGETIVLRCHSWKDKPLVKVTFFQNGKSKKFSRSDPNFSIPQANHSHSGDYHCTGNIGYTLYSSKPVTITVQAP
Kind of test: SPR (Biacore).
On to B1, for which the “fold increase of binding against IL6R-BP230/IL6R-L” value is 1.2 times.

As for B4, the “fold increase of binding against IL6R-BP230/IL6R-L” value is 1.1 fold.

In the next test the target is T4, FcγRIIIa type V extracellular domain with C-terminal His tag (human, UniProt P08637 17-208).
T4 construct: extracellular domain; Allotype V158 (type V); also called FcgRIIIaV; FcγRIIIaV
Kind of test: SPR (Biacore).
T4 sequence (P08637 17-208 F176V): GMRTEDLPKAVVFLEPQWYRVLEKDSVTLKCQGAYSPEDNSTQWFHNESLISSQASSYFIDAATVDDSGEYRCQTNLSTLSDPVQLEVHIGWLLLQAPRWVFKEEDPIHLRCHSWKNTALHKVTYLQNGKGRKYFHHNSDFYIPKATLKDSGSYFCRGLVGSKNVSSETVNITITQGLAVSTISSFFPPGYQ
For the molecule B1, the binding result is given as “binds”.

As for B2, the binding result was “binds”.

For the molecule B3, the binding result was “binds”.

On to B4, for which the binding result is given as “binds”.

Another test has as its target T5, FcγRIa extracellular domain with C-terminal His tag (human, UniProt P12314 16-292).
T5 construct: also called FcgRIa
Nature of the test: SPR, captured antibody, FcgR analyte.
T5 sequence (P12314 16-292): as the sequence (P12314 16-292) above
Protocol: (§1) Relative binding activities were calculated for the results of analyzing interactions with the respective FcγRs according to the following method.
For the molecule B5, the relative binding activity is 118 relative (IL6R-BF648/IL6R-L = 100).

The target in the next test is T6, FcγRIIa type H extracellular domain with C-terminal His tag (human, UniProt P12318 34-217).
T6 construct: extracellular domain; also called FcgRIIaH; FcγRIIa H
T6 sequence (looked up): T2 sequence (looked up)
Kind of test: SPR, captured antibody, FcgR analyte.
Protocol: as §1
With B5, the relative binding activity is 123 relative (IL6R-BF648/IL6R-L = 100).

For another test, the target named is T7, FcγRIIb extracellular domain with C-terminal His tag (human, UniProt P31994 43-217).
T7 construct: extracellular domain; also called FcgRIIb
T7 sequence (looked up): T3 sequence (looked up)
Nature of the test: SPR, captured antibody, FcgR analyte.
Protocol: as §1
As to B5, the relative binding activity was 169 relative (IL6R-BF648/IL6R-L = 100).

The next test concerns the target T8, FcγRIIIa type V extracellular domain with C-terminal His tag (human, UniProt P08637 17-208).
T8 construct: extracellular domain; also called FcgRIIIaV; FcγRIIIaV
Kind of test: SPR, captured antibody, FcgR analyte.
T8 sequence (P08637 17-208 F176V): as the sequence (P08637 17-208 F176V) above
Protocol: as §1
B5: the relative binding activity is 100 relative (IL6R-BF648/IL6R-L = 100).

Another test deals with T3, FcγRIIb extracellular domain with …. Kind of test: SPR (Biacore), relative amount of binding.
As for B6, the binding result is “binds”.

The target in the next test is T9, FcγRIIb extracellular domain with C-terminal His tag (human, UniProt P31994 43-217).
T9 construct: extracellular domain; For crystallography it was expressed with kifunensine and trimmed with Endo F1; also called FcgRIIb; FcγRIIb extracellular region; not shown: His tag attached to the C terminus
T9 sequence (looked up): T3 sequence (looked up)
Nature of the test: SPR; KD for FcγRIIaH divided by KD for FcγRIIb.
With B7, the “KD(IIaH)/KD(IIb)” value turned out to be 1230.

B8: the “KD(IIaH)/KD(IIb)” value amounted to 168.

For B9, the “KD(IIaH)/KD(IIb)” value is 454.

Take B10: the “KD(IIaH)/KD(IIb)” value worked out at 466.

Turning to B11, the “KD(IIaH)/KD(IIb)” value was found to be 748.

For a further test, the target named is T9, FcγRIIb extracellular domain with …. Nature of the test: SPR; KD for FcγRIIaR divided by KD for FcγRIIb.
Consider B7, for which the “KD(IIaR)/KD(IIb)” value was 64.4.

B8: the “KD(IIaR)/KD(IIb)” value is 22.8.

For B9, the “KD(IIaR)/KD(IIb)” value came out at 26.2.

Take B10: the “KD(IIaR)/KD(IIb)” value was 29.

As to B11, the “KD(IIaR)/KD(IIb)” value is 46.1.

The target in the next test is T10, FcγRIa extracellular domain with C-terminal His tag (human, UniProt P12314 16-292).
T10 construct: also called FcgRIa; not shown: His tag attached to the C terminus
Kind of test: SPR (Biacore), antibody captured, FcγR as analyte.
T10 sequence (P12314 16-292): as the sequence (P12314 16-292) above
For orientation: Kd means the free concentration of one partner at which half of the binding sites on the other are occupied at equilibrium, for simple one-to-one binding. High values mean weaker binding, low ones tighter binding. As to B7, the Kd amounted to 0.21 nM.

Molecule B8 registered a Kd of 5.6 nM.

In turn, B9 came in with a Kd of 31 nM.

Molecule B10 gave a Kd of 25 nM.

B11 showed a Kd of 0.19 nM.

The molecule B12 registered a Kd of 9.4 nM.

For a further test, the target named is T9, FcγRIIb extracellular domain with …. Kind of test: SPR (Biacore), antibody captured, FcγR as analyte.
B7 came in with a Kd of 14 nM.

B8 came in with a Kd of 180 nM.

As for B9, the Kd turned out to be 22 nM.

The molecule B10 returned a Kd of 24 nM.

Regarding B11, the Kd came to 15 nM.

As to B12, the Kd worked out at 18 nM.

For the next test, the target named is T11, FcγRIIa type R extracellular domain with C-terminal His tag (human, UniProt P12318 34-217).
T11 chain: T2 sequence (looked up) with H134R
Nature of the test: SPR (Biacore), antibody captured, FcγR as analyte.
As for B7, binding was put at a Kd of 890 nM.

Molecule B8 came in with a Kd of 4200 nM. Compared with the last molecule, the Kd is about 4.7-fold higher.

B9 gave a Kd of 580 nM.

The molecule B10 gave a Kd of 680 nM.

For the molecule B11, the Kd stood at 680 nM.

For B12, the Kd was found to be 510 nM.

The target in a further test is T9, FcγRIIb extracellular domain with …. Nature of the test: SPR; KD of IL6R-B3/IL6R-L divided by KD of the variant.
In the case of B7, the “KD(IIb) of the parent polypeptide/KD(IIb) of the altered polypeptide” value (from here on “KD(IIb) … of the altered polypeptide”) was determined as 225.

With B8, the “KD(IIb) … of the altered polypeptide” value was 16.8.

In the case of B9, the “KD(IIb) … of the altered polypeptide” value came out at 141.

With B10, the “KD(IIb) … of the altered polypeptide” value is 131.

Turning to B11, the “KD(IIb) … of the altered polypeptide” value was 211.

In another test the target is T11, FcγRIIa type R extracellular domain …. The test is described as above.
Take B7: the “KD(IIaR) of the parent polypeptide/KD(IIaR) of the altered polypeptide” value (shortened to “KD(IIaR) … of the altered polypeptide”) came out at 1.2.

Regarding B8, the “KD(IIaR) … of the altered polypeptide” value came out at 0.3.

With B9, the “KD(IIaR) … of the altered polypeptide” value was 1.9.

B10: the “KD(IIaR) … of the altered polypeptide” value amounted to 1.6.

For B11, the “KD(IIaR) … of the altered polypeptide” value came out at 1.6.
